The labels stand for the following.
B1: HDV Ribozyme (parent)
chain: GGCCGGCAUGGUCCCAGCCUCCUCGCUGGCGCCGGCUGGGCAACAUUCCGAGGGGACCGUCCCCUCGGUAAUGGCGAAUGGGACCCA

The data set covers variants of B1. Description: self-cleavage, relative activity (ratio to wild type); higher = more cleavage; co-transcriptional.
With GGCCGGCAUGGUCCCAGCCUCCUCGCUGGCGCCGGCUGGGGAACAUUCCGAGGGGACCGUCCCCUCGGUAUUGGCGAAUGGGACCCA [C41G A71U], the self-cleavage amounted to 0.554.

Regarding GGCCGGCAUGGUCCCAGCCUCCUCGCUGGCGCCGGCUGGGGAACAUUCCGAGGGGACCGUCCCCUCGGUACUGGCGAAUGGGACCCA [C41G A71C], the self-cleavage was 0.0723.

Take GGCCGGCAUGGUCCCAGCCUCCUCGCUGGCGCCGGCUGGGGACCAUUCCGAGGGGACCGUCCCCUCGGUAAUGGCGAAUGGGACCCA [C41G A43C]: the self-cleavage is 0.308.

Regarding GGCCGGCAUGGUCCCAGCCUCCUCGCUGGCGCCGGCUGGGGAUCAUUCCGAGGGGACCGUCCCCUCGGUAAUGGCGAAUGGGACCCA [C41G A43U], the self-cleavage was determined as 0.277.

For GGCCGGCAUGGUCCCAGCCUCCUCGCUGGCGCCGGCUGGGGAGCAUUCCGAGGGGACCGUCCCCUCGGUAAUGGCGAAUGGGACCCA [C41G A43G], the self-cleavage was 0.262.

For GGCCGGCAUGGUCCCAGCCUCCUCGCUGGCGCCGGCUGGGAAACAUUCCGAGGGGACCGUCCCCUCGGUAAUGGCGAAUGGGAGCCA [C41A C84G], the self-cleavage is 0.749.

As to GGCCGGCAUGGUCCCAGCCUCCUCGCUGGCGCCGGCUGGGAAACAUUCCGAGGGGACCGUCCCCUCGGUAAUGGCGAAUGGGAUCCA [C41A C84U], the self-cleavage turned out to be 0.388.

As for GGCCGGCAUGGUCCCAGCCUCCUCGCUGGCGCCGGCUGGGAAACAUUCCGAGGGGACCGUCUCCUCGGUAAUGGCGAAUGGGACCCA [C41A C62U], the self-cleavage came to 0.869.

In the case of GGCCGGCAUGGUCCCAGCCUCCUCGCUGGCGCCGGCUGGGAAACAUUCCGAGGGGACCGUCCCCUCCGUAAUGGCGAAUGGGACCCA [C41A G67C], the self-cleavage turned out to be 0.525.

With GGCCGGCAUGGUCCCAGCCUCCUCGCUGGCGCCGGCUGGGAAACAUUCCGAGGGGACCGCCCCCUCGGUAAUGGCGAAUGGGACCCA [C41A U60C], the self-cleavage came to 1.05.

As for GGCCGGCAUGGUCCCAGCCUCCUCGCUGGCGCCGGCUGGGAAACAUUCCGAGGGGACCGUCCCCUCGGUAAUGGCUAAUGGGACCCA [C41A G76U], the self-cleavage turned out to be 1.02.

Regarding GGCCGGCAUGGUCCCAGCCUCCUCGCUGGCGCCGGCUGGGAAACAUUCCUAGGGGACCGUCCCCUCGGUAAUGGCGAAUGGGACCCA [C41A G50U], the self-cleavage was found to be 0.886.

Consider GGCCGGCAUGGUCCCAGCCUCCUCGCUGGCGCCGGCUGGGAAACAUUCCCAGGGGACCGUCCCCUCGGUAAUGGCGAAUGGGACCCA [C41A G50C], for which the self-cleavage was 0.877.

On to GGCCGGCAUGGUCCCAGCCUCCUCGCUGGCGCCGGCUGGGAAACAUUCCAAGGGGACCGUCCCCUCGGUAAUGGCGAAUGGGACCCA [C41A G50A], for which the self-cleavage was determined as 0.957.

Take GGCCGGCAUGGUCCCAGCCUCCUCGCUGGCGCCGGCUGGGAAACAUUCCGAGGGGACCGUCCCCUCGGUAACGGCGAAUGGGACCCA [C41A U72C]: the self-cleavage was determined as 0.653.

With GGCCGGCAUGGUCCCAGCCUCCUCGCUGGCGCCGGCUGGGAAACAUUCCGAGGGGACCGUCCCCUCGGUAAAGGCGAAUGGGACCCA [C41A U72A], the self-cleavage is 0.906.

Take GGCCGGCAUGGUCCCAGCCUCCUCGCUGGCGCCGGCUGGGAAACAUUCCGAGGGGACCGUCCCCUCGGUAAGGGCGAAUGGGACCCA [C41A U72G]: the self-cleavage was found to be 0.712.

Take GGCCGGCAUGGUCCCAGCCUCCUCGCUGGCGCCGGCUGGGAAACAUUCCGAGGGGACCGUCCCCUCGCUAAUGGCGAAUGGGACCCA [C41A G68C]: the self-cleavage came out at 0.665.

As to GGCCGGCAUGGUCCCAGCCUCCUCGCUGGCGCCGGCUGGGAAACAUUCCGAGGGGACCGUCCCCUCGAUAAUGGCGAAUGGGACCCA [C41A G68A], the self-cleavage is 1.01.

Turning to GGCCGGCAUGGUCCCAGCCUCCUCGCUGGCGCCGGCUGGGAAACAUUCCGAGGGGACCGUCCCCUCGUUAAUGGCGAAUGGGACCCA [C41A G68U], the self-cleavage came to 0.561.

As to GGCCGGCAUGGUCCCAGCCUCCUCGCUGGCGCCGGCUGGGAAACAUACCGAGGGGACCGUCCCCUCGGUAAUGGCGAAUGGGACCCA [C41A U47A], the self-cleavage worked out at 0.689.

Consider GGCCGGCAUGGUCCCAGCCUCCUCGCUGGCGCCGGCUGGGAAACAUUCCGAGGGGACCGUCCCCUUGGUAAUGGCGAAUGGGACCCA [C41A C66U], for which the self-cleavage stood at 0.9.

Consider GGCCGGCAUGGUCCCAGCCUCCUCGCUGGCGCCGGCUGGGAAACAUUCCGAGAGGACCGUCCCCUCGGUAAUGGCGAAUGGGACCCA [C41A G53A], for which the self-cleavage was 0.967.

With GGCCGGCAUGGUCCCAGCCUCCUCGCUGGCGCCGGCUGGGGAACAUUCCGCGGGGACCGUCCCCUCGGUAAUGGCGAAUGGGACCCA [C41G A51C], the self-cleavage was 0.635.

Turning to GGCCGGCAUGGUCCCAGCCUCCUCGCUGGCGCCGGCUGGGAAACAUUCCGAGGGGACCGUCCCCUCGGUAAUGGCGAAUGGGACCAA [C41A C86A], the self-cleavage came to 0.815.

For the variant GGCCGGCAUGGUCCCAGCCUCCUCGCUGGCGCCGGCUGGGGAACAUUCCGAGGGGGCCGUCCCCUCGGUAAUGGCGAAUGGGACCCA [C41G A56G], the self-cleavage was determined as 0.851.

Turning to GGCCGGCAUGGUCCCAGCCUCCUCGCUGGCGCCGGCUGGGGAACAUUCCGAGGGGUCCGUCCCCUCGGUAAUGGCGAAUGGGACCCA [C41G A56U], the self-cleavage amounted to 0.746.

Consider GGCCGGCAUGGUCCCAGCCUCCUCGCUGGCGCCGGCUGGGAAACAUUCCGAGGGGACCGUCCCCUCGGUAAUGGCGAAUAGGACCCA [C41A G80A], for which the self-cleavage was 0.389.

On to GGCCGGCAUGGUCCCAGCCUCCUCGCUGGCGCCGGCUGGGAAACAUUCCGAGGGGACCGUCCCCUCGGUAAUGGCGAAUUGGACCCA [C41A G80U], for which the self-cleavage came out at 0.187.

Consider GGCCGGCAUGGUCCCAGCCUCCUCGCUGGCGCCGGCUGGGAAACAUUCCGAGGGGACCGUCCCCUCGGUAAUGGAGAAUGGGACCCA [C41A C75A], for which the self-cleavage was 0.208.

Turning to GGCCGGCAUGGUCCCAGCCUCCUCGCUGGCGCCGGCUGGGAAACAUUCCGAGGGGACCGUCCCCUCGGUAAUGGUGAAUGGGACCCA [C41A C75U], the self-cleavage came to 0.145.

As to GGCCGGCAUGGUCCCAGCCUCCUCGCUGGCGCCGGCUGGGAAACAUUCCGAGGGGACCGUCCCCUCGGUAAUGGGGAAUGGGACCCA [C41A C75G], the self-cleavage worked out at 0.0773.

(Values after the RNAGym collection of RNA variant scans (doi:10.7554/elife.80360).)
